Data: patent publication CN111196850A
Like-named read-outs stand apart in the source and are kept apart here.

Key:
rhTSLP-hFc (human) [1] = experiment: cell-based or functional assay
rhTSLP-hFc (human) [2] = experiment: cell-based or functional assay; remark: listed apart in the source

Chain of rhTSLP-hFc (human) (chain, as listed by the source limits assumed): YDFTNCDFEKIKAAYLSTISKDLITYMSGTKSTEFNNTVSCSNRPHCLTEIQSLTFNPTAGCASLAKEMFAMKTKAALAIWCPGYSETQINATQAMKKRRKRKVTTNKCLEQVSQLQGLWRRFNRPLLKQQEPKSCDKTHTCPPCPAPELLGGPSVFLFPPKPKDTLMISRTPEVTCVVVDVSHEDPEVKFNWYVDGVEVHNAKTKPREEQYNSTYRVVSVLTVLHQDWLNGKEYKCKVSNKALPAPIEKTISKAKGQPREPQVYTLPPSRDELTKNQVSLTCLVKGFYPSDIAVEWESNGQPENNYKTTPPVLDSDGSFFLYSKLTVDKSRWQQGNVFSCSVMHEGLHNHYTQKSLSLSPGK

IC50, 抑制TSLP刺激的293F转染细胞STAT5-荧光素酶活性 (rhTSLP-hFc (human) [1]): 5.72 µg/mL
IC50, 抑制TSLP刺激的293F转染细胞STAT5-荧光素酶活性 (rhTSLP-hFc (human) [2]): 7.04 µg/mL
Substance: 人TSLP单抗Tezepelumab/MEDI9929(Amgen) (antibody)
